According to patent publication US20140289906A1, “Compositions Having Dicamba Decarboxylase Activity and Methods of Use” (priority 2013, published 2014):
Where a chain is given by its changes, count along the chain named.

B1: 25 (protein, listed as Acidovorax avenae)
chain: MAQGKIGLEEHFAIPETLQDSAGFVPGDYWKELSLRLLDIHERRLREMDENGMEMMILSLNAPAVQAIPDTKKAVEIAVRANDFLAEQVARRPDRFQAFAALPMQDPDLATRELERCMQDLGFRGALVNGFSQVGTPENVVYYDAPQYGDFWAAVERLDAPFYLHPRNPIASWAQIYQGHPWLMGPTWAFAQETAVHALRLMASGLFDRHPGLRIILGHLGEGLPYNMWRVDHRNAWVDMPKGYPAKRKLCDYFHENFYLTTSGNFRTQTLIDALLEVGADRILFSTDWPFENVDHAAHWFDDAAISEADRLKIGRTNALSLFKLPQG
B2: 124 (protein)
chain: MAQGKVALEEHFAIPETLQDSAGFVPGDYWKELQHRLLDIQDTRLKLMDAHGIETMILSLAAPAVQAIPDRRKAIEIARRANDFLAEECAKRPDRFLAFAALPLQDPDAATEELQRCVNDLGFVGALVNGFSQEGDGQTPLYYDLPQYRPFWGEVEKLDVPFYLHPRNPLPQDSRIYDGHPWLLGPTWAFAQETAVHALRLMASGLFDEHPQLNIILGHMGEGLPYMMWRIDHRVAWGKLPPAYPAKRRFMDYFNENFHITTSGNFRTQTLIDAILEIGADRILFSTDWPFENIDHASDWFNATSIAEADRVKIGRTNARRLFKLDGD
modifications: Dicamba decarboxylase variant clone S03969214
B3: 125 (protein)
chain: B2 chain with Q212R, N214Q, W229Y, V235I, G238V, K239H, L240E, A243R, D328A
modifications: Dicamba decarboxylase variant clone S03970523
B4: 29 (protein, listed as Pseudovibrio sp.)
chain: MAGRRDFLRKSVAAGVGLTAAAQLSAGGAQATVPDTSNIPLITLEEHFTTPELQSKNTSGDKRLFSGGGSRPELLDVGAGRIADMDEAGIDIQVLSTVTPGASKITGAEGVEFTRKFNTWIAEEVIAAYPNRFRAFATLPLSSPEAAADELERSVREYGFVGTMTYGPIDGKFLDHADYAPLLARAEALGVPIYIHPNWPSPTAMQAYYDGLGDDLTSRILSGPGYGWHQEIAVQCLRLIVGGVFDRFPNLQIVVGHMGEGLPFYYWRVGEDLDRIAQKRLQKPVQQYFHDNLWITTSAFFRDELLNLALATMGEDRVMFSVDYPMASAKVGADWLRAADIPLATKEKIGSKNAMKLLGIDKI
B5: 24 (protein)
chain: MALGKVVLEEAYERPNMKEKSNHEAGLYIAPNDRPRYMRQINDINQERLKLADAHGVGYTIISLTVPGIQGIFDKTEAERVATETNNWAAEQIKNHRDRLGAFACLSMHDPAQAANELRRCVQELGFHGALLCSFQHAGPDGETYLFYDQPKYDVFWKALTELDVPLYIHPAAPTGSILERLYAQRPALIGPPLSFANDVSLHTLGIISNGVFDRFPNLKIIIGHLGEHIPFDFWRIDHWFRDVKKPIADEEGRVMAQKSLYHYFKHNIWLTTSGHFSTPTLKYVVNEIGVDRVLFSVDYPYETTESGCNWWDHDKDAIVEAVGGVDNYYAIGRENAKKLLRLDKFHDSDAR
modifications: Aspergillus niger
B6: 27 (protein, listed as Aspergillus oryzae)
chain: MALGKIALEEAFALPRFEEKTRWWASLFSTDAETHVKEITDINKIRIEHADKHGVGYQILSYTAPGVQDIWDPVEAQALAVEINDYIAEQVRVNPDRFGAFATLSMHNPKEAADELRRCVEKYGFKGALVNDTQRAGPDGDDMIFYDNADWDIFWQTCTELDVPFYMHPRNPTGTIYEKLWADRKWLVGPPLSFAHGVSLHVLGMVTNGVFDRHPKLQIIMGHLGEHVPFDMWRINHWFEDRKKLLGLAETCKKTIRDYFAENIWITTSGHFSTTTLNFCMAEVGSDRILFSIDYPFETFSDACEWFDNAELNGTDRLKIGRENAKKLFKLDSYKDSSA

Assay: 14C assay: 14CO2 capture from [14C]-carboxyl-labeled dicamba with IPTG-induced recombinant E. coli cells
Details: for Dicamba Decarboxylase Activity: IPTG-induced recombinant E. coli cells, 14CO2 from [14C]-carboxyl-labeled dicamba; for Enzymatic Detection level: dicamba decarboxylation activity

Molecule | Dicamba Decarboxylase Activity | Enzymatic Detection level
B1 | Low | Low
B2 |  | High
B3 |  | High
B4 | No | No
B5 | Low | Low
B6 | No | No
